Common to all, as to format: binding
Assay [1] has as its system Antibody-2. Put plainly: Pepscan ELISA on single or double hFSH peptide loops, Antibody-2. Conditions: individual loop peptides coupled as single loops. The source says: (§1) FIG. 17: Result of Pepscan ELISA with two different antibodies on single or double peptide loops coupled to Pepscan minicards, as described above. Coupled to square-A: Loop peptide-1; Coupled to square-B: first Loop peptide-1 followed by Loop peptide-2; Coupled to square-C: Loop peptide-2; Coupled to square-D: first Loop peptide-2 followed by Loop peptide-1. Loop peptide-1: +KSYNRVTVMGGFKVEZ-conh2 (SEQ ID NO: 63); Loop peptide-2: +LQENPFFSQPGAPILZ-conh2 (SEQ ID NO: 64). The y-axis are optical density values (OD) obtained using a ccd-camera system. Both loop-peptides are derived from human Follicle-Stimulating Hormone (hFSH).
(§2) Two peptides that constitute two separate parts of a discontinuous epitope were coupled to the surface of a minicard as described above in the legend of FIG. 12 (cf. FIG. 3A and FIG. 4 (example-4)). A cys(mmt) was coupled alone or in combination with a cys(trt) (in a 1:1 ratio) and/or val(mmt) (the cys and val in a 1:1, 1:3, 1:9 etc. ratio). In this way one peptide was coupled (squares A and C) or two peptides with increasing valines in between the cysteines were coupled (squares B and D) (cf. FIG. 4B (example-4), FIG. 17). These four configurations were incubated with two different antibodies.
Background: In an ELISA, binding on a coated surface is turned into a signal by an enzyme label.

The target in assay [2] is lysozyme-biotin (Gallus gallus, UniProt P00698). In words: Loop-loop Matrix-scan of CDR loop-peptide pairs with lysozyme-biotin. To be noted: lysozyme-biotin 100 ug/ml, in triplo. As for the experimental part:
FIG. 16: Result of the loop-loop 15-mer Matrix-scan of loop-loop CDR-regions of antibodies with lysozyme-biotin (100 ug/ml, in triplo). Using 1 μg/ml lysozyme-biotin no binding is observed (not shown). Controls of only streptavidin-peroxidase in between the tests were negative (not shown). Peptides A, B, C, D, E and F: Peptide-A: +ARERDYRLDYZ (SEQ ID NO: 30) (HCDR3 of 1 fdl.pdb); Peptide-B: +ARGDGNYGYZ (SEQ ID NO: 31) (HCDR3 of 1mlb.pdb); Peptide-C: +LHGNYDFDGZ (SEQ ID NO: 32) (HCDR3 of 3hfl.pdb); Peptide-D: +ANWDGDYZ (SEQ ID NO: 33) (HCDR3 of 3hfm.pdb); Peptide-E: +ARRYGNSFDYZ (SEQ ID NO: 34) (HCDR3 of 1qfw.pdb); Peptide-F: +ARQGTAAQPYWYZ (SEQ ID NO: 35) (HCDR3 of 1qfw.pdb) (1fdl.pdb, 1mlb.pdb, 3hfl.pdb and 3hfm.pdb are antibodies that bind lysozyme; 1qfw.pdb are two antibodies that bind human choriogonadotrophin). All peptides have an amino terminal bromo-group (+) and a carboxyterminal lysine-mmt (Z).
Peptides 1 to 27: Peptide-1: +RASGNIHNYLAZ (SEQ ID NO: 36) (LCDR1 of 1fdl.pdb); Peptide-2: +RASQSISNNLHZ (SEQ ID NO: 37) (LCDR1 of 1mlb.pdb); Peptide-3: +SASSSVNYMYZ (SEQ ID NO: 38) (LCDR1 of 3hfl.pdb); Peptide-4: +RASQSIGNNLHZ (SEQ ID NO: 39) (LCDR1 of 3hfm.pdb); Peptide-5: +RASESVDSYGNSZ (SEQ ID NO: 40) (LCDR1 of 1qfw.pdb); Peptide-6: +ASESVDSYGNSFZ (SEQ ID NO: 41) (LCDR1 of 1qfw.pdb); […]: +SESVDSYGNSFMZ (SEQ ID NO: 42) (LCDR1 of 1qfw.pdb); Peptide-8: +ESVDSYGNSFMQZ (SEQ ID NO: 43) (LCDR1 of 1qfw.pdb); Peptide-9: +RASESVDSYGNSFZ (SEQ ID NO: 44) (LCDR1 of 1qfw.pdb); Peptide-10: +ASESVDSYGNSFMZ (SEQ ID NO: 45) (LCDR1 of 1qfw.pdb); Peptide-11: +SESVDSYGNSFMQZ (SEQ ID NO: 46) (LCDR1 of 1qfw.pdb); Peptide-12: +RASESVDSYGNSFMZ (SEQ ID NO: 47) (LCDR1 of 1qfw.pdb); Peptide-13: +ASESVDSYGNSFMQZ (SEQ ID NO: 48) (LCDR1 of 1qfw.pdb); Peptide-14: +RASESVDSYGNSFMQZ (SEQ ID NO: 49) (LCDR1 of 1qfw.pdb); Peptide-15: +KASETVDSFVSZ (SEQ ID NO: 50) (LCDR1 of 1qfw.pdb); Peptide-16: +LLVYYTTTLADGZ (SEQ ID NO: 51) (LCDR2 of 1fdl.pdb); Peptide-17: +LLIKYVSQSSSGZ (SEQ ID NO: 52) (LCDR2 of 1mlb.pdb); Peptide-18: +RWIYDTSKLASGZ (SEQ ID NO: 53) (LCDR2 of 3hfl.pdb); Peptide-19: +LLIKYASQSISGZ (SEQ ID NO: 54) (LCDR2 of 3hfm.pdb); Peptide-20: +LLIYRASNLESGZ (SEQ ID NO: 55) (LCDR2 of 1qfw.pdb); Peptide-21: LLIFGASNRESGZ (SEQ ID NO: 56) (LCDR2 of 1qfw.pdb); Peptide-22: +QHFWSTPRTZ (SEQ ID NO: 57) (LCDR3 of 1fdl.pdb); Peptide-23: +QQSNSWPRTZ (SEQ ID NO: 58) (LCDR3 of 1mlb.pdb); Peptide-24: +QQWGRNPTZ (SEQ ID NO: 59) (LCDR3 of 3hfl.pdb); Peptide-25: +QQSNSWPYTZ (SEQ ID NO: 60) (LCDR3 of 3hfm.pdb); Peptide-26: +QQSDEYPYMYTZ (SEQ ID NO: 61) (LCDR3 of 1qfw.pdb); Peptide-27: +GQTYNHPYTZ (SEQ ID NO: 62) (LCDR3 of 1qfw.pdb) (1 fdl.pdb, 1mlb.pdb, 3hfl.pdb and 3hfm.pdb are antibodies that bind lysozyme; 1 qfw.pdb are two antibodies that bind human choriogonadotrophin). All peptides have an amioterminal bromo-group (+) and a carboxyterminal lysine-mmt (Z).
From six different antibodies, the HCDR3-region (complementary determining region three of the antibody heavy chain) was synthesized as synthetic loop-peptides. As an example, four different anti-lysozyme antibodies and two different anti-choriogonadotrophin antibodies were selected: 1fdl.pdb (D1.3), 1mlb.pdb (D44.1), 3hfl.pdb (HyHel-5), 3hfm.pdb (HyHel-10) all anti-lysozyme, and 1qfw.pdb, two anti-human choriogonadotrophin, one anti-alpha and one anti-beta. The synthetic loop peptides were coupled to the minicards as described above. The three-dimensional coordinates (pdb-files) were extracted from the Protein Data Bank (PDB) at www.rcsb.org (RCSB, Research Collaboratory for Structural Bioinformatics) (Berman et al., 2000, The Protein Data Bank. Nucleic Acids Research, 28 pp. 235-242; Bernstein et al. 1977, The protein data bank: A computer-based archival file for macromolecular structures. J. Mol. Biol. 112:535-542). […]

Assay [3] relates to Antibody-1. Put plainly: Pepscan ELISA on single or double hFSH peptide loops, Antibody-1. To be noted: individual loop peptides coupled as a single loop.
From the text: as §1, §2

Assay [4] concerns monoclonal antibody 210. In words: Standard linear Pepscan on all overlapping 12-mers of hTNF with mAb 210. Conditions: all overlapping linear 12-mers covering hTNF. The procedure:
FIG. 10: Standard linear Pepscan on all overlapping synthetic 12-mers covering the linear sequence of hTNF with monoclonal antibody 210 (R&D Systems, MAB210, clone 1825.12, through ITK Diagnostics Uithoorn, The Netherlands). A small peak with the sequence IKSPCQRETPEG (SEQ ID NO: 2) was identified. The y-axis are optical density values (OD) obtained using a ccd-camera system. Rampo, rabbit-anti-mouse peroxidase (DAKO).
The monoclonal antibody mAb-210 raised against hTNF was tested on linear and loop peptides (mAb-210 was bought from R&D Systems, MAB210, clone 1825.12, through ITK Diagnostics Uithoorn, The Netherlands). Firstly, it was tested in Pepscan on all overlapping linear 12-mers covering hTNF. […] Secondly, it was tested in Pepscan matrix-scan on double 15-mer loop-loop peptides (as described in FIGS. 3 and 4 and explained through FIGS. 11-12). Two loop-regions were labeled: peptide sequence GQGCPSTHVLLT (SEQ ID NO: 65) (squares 65 to 67) and SAIKSPCQRE (SEQ ID NO: 28) (squares 92 to 96) (FIGS. 13, 14). In addition in various squares loop peptide spots were identified corresponding to sequence GQGCPSTHVLLT (SEQ ID NO: 65) (spots 65-67); SAIKSPCQRE (SEQ ID NO: 28) (spots 92-96) and KGDRLSAEINR (SEQ ID NO: 29) (spots 126-129) (FIG. 14). […]

“Also recorded” adds a separate entry of the source. Ends that are not written are not given here. code + = amino-terminal bromo-group; mmt = not defined here

Experimental findings from US20120190564A1, “IDENTIFICATION OF PROTEIN BINDING SITES” (priority 2000, published 2012) are described below.

Chain of lysozyme-biotin (P00698 19-147): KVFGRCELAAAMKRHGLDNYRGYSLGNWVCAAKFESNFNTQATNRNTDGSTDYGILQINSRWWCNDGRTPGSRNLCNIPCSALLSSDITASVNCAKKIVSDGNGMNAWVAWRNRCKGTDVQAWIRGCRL

Turning to “+KSYNRVTVMGGFKVEZ-conh2 ({code +}-KSYNRVTVMGGFKVEX-NH2; not fully specified; printed as +KSYNRVTVMGGFKVEZ-conh2) [loop peptide-1, loop-peptide derived from human Follicle-Stimulating Hormone (hFSH)]”, the “recognition by Antibody-2” value in assay [1] is “recognized”.

On to “+LHGNYDFDGZ (SEQ ID NO: 32)+ASESVDSYGNSFMZ (SEQ ID NO: 45): loop-loop peptide pair: loop of HCDR3 of 3hfl.pdb and loop of LCDR1 1qfw.pdb (chain 1 {code +}-LHGNYDFDGK(mmt); chain 2 {code +}-ASESVDSYGNSFMK(mmt); not fully specified; reading uncertain)”, for which the “binding activity with lysozyme-biotin” value in assay [2] was “highest binding activity”.

Turning to “+LHGNYDFDGZ (SEQ ID NO: 32)+ASESVDSYGNSFZ (SEQ ID NO: 41): loop-loop peptide pair: loop of HCDR3 of 3hfl.pdb and loop of LCDR1 1qfw.pdb (chain 1 {code +}-LHGNYDFDGK(mmt); chain 2 {code +}-ASESVDSYGNSFK(mmt); not fully specified; reading uncertain)”, the “binding activity with lysozyme-biotin” value in assay [2] is “highest binding activity”.

For “+LHGNYDFDGZ (SEQ ID NO: 32)+LLVYYTTTLADGZ (SEQ ID NO: 51): loop-loop peptide pair: loop of HCDR3 of 3hfl.pdb and loop of LCDR2 1fdl.pdb (chain 1 {code +}-LHGNYDFDGK(mmt); chain 2 {code +}-LLVYYTTTLADGK(mmt); not fully specified; reading uncertain)”, in assay [2], the “binding activity with lysozyme-biotin” value is “highest binding activity”.

With “+LHGNYDFDGZ (SEQ ID NO: 32)+RASESVDSYGNSFMQZ (SEQ ID NO: 49): loop-loop peptide pair: loop of HCDR3 of 3hfl.pdb and loop of LCDR1 1qfw.pdb (chain 1 {code +}-LHGNYDFDGK(mmt); chain 2 {code +}-RASESVDSYGNSFMQK(mmt); not fully specified; reading uncertain)”, the “binding activity with lysozyme-biotin” value in assay [2] is recorded as “highest binding activity”.

For the substance “+LHGNYDFDGZ (SEQ ID NO: 32)+RASESVDSYGNSFZ (SEQ ID NO: 44): loop-loop peptide pair: loop of HCDR3 of 3hfl.pdb and loop of LCDR1 1qfw.pdb (chain 1 {code +}-LHGNYDFDGK(mmt); chain 2 {code +}-RASESVDSYGNSFK(mmt); not fully specified; reading uncertain)”, in assay [2], the “binding activity with lysozyme-biotin” value was “highest binding activity”.

Take “+LHGNYDFDGZ (SEQ ID NO: 32)+SESVDSYGNSFMQZ (SEQ ID NO: 46): loop-loop peptide pair: loop of HCDR3 of 3hfl.pdb with loop of LCDR1 of 1qfw.pdb (chain 1 {code +}-LHGNYDFDGK(mmt); chain 2 {code +}-SESVDSYGNSFMQK(mmt); not fully specified; reading uncertain)”: the “binding activity with lysozyme-biotin” value in assay [2] is listed as “highest binding activity”.

Consider “+LQENPFFSQPGAPILZ-conh2 ({code +}-LQENPFFSQPGAPILX-NH2; not fully specified; printed as +LQENPFFSQPGAPILZ-conh2) [loop peptide-2, loop-peptide derived from human Follicle-Stimulating Hormone (hFSH)]”, for which, in assay [3], the “recognition by Antibody-1” value is listed as “recognized”.

Turning to IKSPCQRETPEG, the “Pepscan binding of monoclonal antibody 210 (optical density)” value in assay [4] is given as “minor peak; also recorded: small peak”.
